Source: the supplement of paper PMC10567573

B1: KCNK9 (parent)
chain: DVPDLQSVCSCTCYRSQDYGGRSV

Variants of: B1
Assay: protein stability index of a GFP-peptide fusion (GPS, HEK-293T) (PSI 1-6); higher = more stable
Conditions: c terminus: a fixed tail appended
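Further: lentivirally expressed fusions sorted by FACS into six bins by GFP to DsRed ratio, PSI derived from sequencing read proportions per bin multiplied by bin number.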

Protein stability index: each site, then its substitutions
Y19: A 1.88; P 1.86; V 1.66; S 1.81; Q 2.44; R 2.08; K 2.1; N 1.71; T 2.64; I 2.18; C 1.88; H 2.27; G 1.58; F 2.25; E 2.02; M 1.83; D 2.41
S23: N 2.14; Q 2.12; L 2.27; R 1.48; Y 2.59; I 3.17; F 2.11; W 2.53; K 4.09; H 1.67; G 2.96; V 1.32; A 1.8; D 2.1; C 1.98
R22: N 2.6; D 3.58; E 3.3; S 2.2; T 1.89; Q 3.22; I 1.93; G 2.06; H 2.43; F 1.33; P 2.16; M 2.04; K 3.06; C 2.38; A 1.84; Y 1.47; V 2.82; W 2.4; L 3.27
G21: Y 2.08; H 1.9; T 2.63; V 2.16; R 1.62; K 1.9; S 3.41; L 1; Q 1.4; P 2.06; F 1.81; A 1.85; D 2.22
G20: F 1.35; D 2.88; Q 1.94; H 2.88; K 2.37; A 2.24; C 2.26; E 1.97; V 1.2; I 2.15; N 2.03; Y 2.8; T 1.87; S 2.07; L 1.67; P 2.03
D18: P 1.67; N 2.08; L 1.73
